For the test, the target named is Human pro-insulin fused to the Gal4 DNA binding domain (human).
Human pro-insulin fused to the Gal4 DNA binding domain (human), sequence (P01308 25-110): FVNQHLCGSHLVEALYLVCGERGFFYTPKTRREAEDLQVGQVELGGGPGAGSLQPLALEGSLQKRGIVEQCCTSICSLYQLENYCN

For “Ligand domain of Schistosoma japonicum insulin receptor 1 (SjIR-1), D59 to E411 (domain or fragment)”, the glucose level of adult S. japonicum worms cultured 24 h with 20% anti-LD1 + anti-LD2 mouse antisera (medium with foetal bovine serum as source of insulin; endogenous receptors), against normal serum turned out to be 65 % reduction.
As for “Ligand domain of Schistosoma japonicum insulin receptor 2 (SjIR-2), Q7 to K399 (domain or fragment)”, the glucose level of adult S. japonicum worms cultured 24 h with 20% anti-LD1 + anti-LD2 mouse antisera (medium with foetal bovine serum as source of insulin; endogenous receptors), against normal serum worked out at 65 % reduction.
